# Experimental data: paper PMC5434536
# Biological target: TIP60, endogenous in C4-2 cells (human (endogenous in C4-2)) (UniProt Q92993)
# Test: co-IP; endogenous proteins, C4-2 lysates; TIP60 immunoprecipitated with anti-TIP60; cells +/- 10 nM MB for 24 h; also cells transfected with siCtrl or siING3 and treated with MB; blot for AR
# Sequence of androgen receptor (AR), endogenous in C4-2 cells (P10275 whole entry): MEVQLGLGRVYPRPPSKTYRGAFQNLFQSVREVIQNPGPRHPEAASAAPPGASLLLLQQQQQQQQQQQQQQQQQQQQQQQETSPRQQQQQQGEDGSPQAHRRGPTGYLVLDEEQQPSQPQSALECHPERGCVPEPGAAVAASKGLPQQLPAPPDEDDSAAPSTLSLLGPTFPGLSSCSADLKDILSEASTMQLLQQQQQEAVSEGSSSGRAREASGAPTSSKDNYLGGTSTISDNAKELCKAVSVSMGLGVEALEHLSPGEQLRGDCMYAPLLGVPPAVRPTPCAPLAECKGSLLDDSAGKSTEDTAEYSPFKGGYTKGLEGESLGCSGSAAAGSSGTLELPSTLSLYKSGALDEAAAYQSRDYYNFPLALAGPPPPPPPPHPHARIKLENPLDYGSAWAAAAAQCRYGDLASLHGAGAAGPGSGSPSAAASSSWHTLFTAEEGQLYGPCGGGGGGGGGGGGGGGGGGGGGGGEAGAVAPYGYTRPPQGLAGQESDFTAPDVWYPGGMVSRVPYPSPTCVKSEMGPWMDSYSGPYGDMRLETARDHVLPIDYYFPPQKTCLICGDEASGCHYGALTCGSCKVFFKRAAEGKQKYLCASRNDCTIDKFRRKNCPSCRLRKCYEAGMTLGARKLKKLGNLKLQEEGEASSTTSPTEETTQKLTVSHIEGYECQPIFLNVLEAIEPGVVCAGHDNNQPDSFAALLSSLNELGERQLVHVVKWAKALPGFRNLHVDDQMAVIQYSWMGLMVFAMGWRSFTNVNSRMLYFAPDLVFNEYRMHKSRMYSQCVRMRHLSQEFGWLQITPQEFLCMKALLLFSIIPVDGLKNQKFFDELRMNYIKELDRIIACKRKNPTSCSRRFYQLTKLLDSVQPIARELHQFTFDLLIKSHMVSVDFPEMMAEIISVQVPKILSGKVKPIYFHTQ
# Sequence of TIP60, endogenous in C4-2 cells (human (endogenous in C4-2)) (Q92993 whole entry): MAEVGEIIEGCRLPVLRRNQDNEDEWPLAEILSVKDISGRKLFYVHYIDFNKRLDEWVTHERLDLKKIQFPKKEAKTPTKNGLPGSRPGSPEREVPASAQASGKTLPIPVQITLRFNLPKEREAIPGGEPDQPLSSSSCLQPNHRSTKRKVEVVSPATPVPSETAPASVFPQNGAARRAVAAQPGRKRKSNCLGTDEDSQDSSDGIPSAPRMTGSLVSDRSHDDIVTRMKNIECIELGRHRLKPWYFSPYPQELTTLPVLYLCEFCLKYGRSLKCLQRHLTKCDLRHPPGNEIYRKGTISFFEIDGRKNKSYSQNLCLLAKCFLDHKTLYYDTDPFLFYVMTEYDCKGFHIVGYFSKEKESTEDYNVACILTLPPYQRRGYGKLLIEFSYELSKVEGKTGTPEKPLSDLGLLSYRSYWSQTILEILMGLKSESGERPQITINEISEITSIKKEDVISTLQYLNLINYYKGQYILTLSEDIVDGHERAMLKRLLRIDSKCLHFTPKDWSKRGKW
substance,measurement,value
"androgen receptor (AR), endogenous in C4-2 cells (from UniProt P10275 1-920)",fold reduction of the AR-TIP60 association with siING3 against siCtrl,3 fold
